Measurements from patent publication US20030109439A1.

Biological target: KGF receptor (mouse) (UniProt P21803)
Experiment: cell-based or functional assay

UniProt P21803, sequence (P21803 22-821): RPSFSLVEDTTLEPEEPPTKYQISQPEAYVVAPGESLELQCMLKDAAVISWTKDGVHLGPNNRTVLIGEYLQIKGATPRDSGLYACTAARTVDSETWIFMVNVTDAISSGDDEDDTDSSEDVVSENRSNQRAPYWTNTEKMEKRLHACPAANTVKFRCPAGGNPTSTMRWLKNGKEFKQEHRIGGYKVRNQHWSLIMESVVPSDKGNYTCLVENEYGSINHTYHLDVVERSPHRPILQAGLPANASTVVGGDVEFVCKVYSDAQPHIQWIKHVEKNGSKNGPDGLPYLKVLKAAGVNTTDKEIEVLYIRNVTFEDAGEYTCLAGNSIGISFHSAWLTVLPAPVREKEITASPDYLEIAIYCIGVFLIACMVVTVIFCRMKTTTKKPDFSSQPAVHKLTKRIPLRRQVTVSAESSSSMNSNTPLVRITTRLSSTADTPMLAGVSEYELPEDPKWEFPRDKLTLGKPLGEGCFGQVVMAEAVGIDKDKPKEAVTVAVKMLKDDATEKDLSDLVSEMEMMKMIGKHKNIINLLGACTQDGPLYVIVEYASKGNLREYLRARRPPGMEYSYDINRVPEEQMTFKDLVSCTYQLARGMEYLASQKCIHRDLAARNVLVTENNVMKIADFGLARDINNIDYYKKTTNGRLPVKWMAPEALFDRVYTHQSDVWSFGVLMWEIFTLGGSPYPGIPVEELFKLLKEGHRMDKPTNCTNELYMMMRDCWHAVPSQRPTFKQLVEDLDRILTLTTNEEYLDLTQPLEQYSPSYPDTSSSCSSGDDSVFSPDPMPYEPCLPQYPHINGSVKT

potency as mitogen for Balb/Mk cells (cell proliferation), relative to KGF (fold less than KGF): 10
Substance: acidic FGF (ligand)
